Drawing on EP3873932A1, this text covers T:B ratio (amyloid deposit-to-background, SUVmax) and T:B uptake (amyloid deposit-to-background) for one molecule.

Experiment [1] deals with human amyloidomas of lambda subtypes. As to the kind of experiment: in vivo microPET of mice implanted with lambda subtype amyloid.
In experiment [2] the target is human amyloidomas of kappa subtypes. As to the kind of experiment: in vivo microPET of mice implanted with kappa subtype amyloid.
For experiment [3], the target named is human amyloidomas (all implanted human amyloid extracts). As to the kind of experiment: in vivo microPET.
Experiment [4] has the same target. As to the kind of experiment: in vivo microPET, 4 days after tracer injection.

B1: [124I]CAEL-101 (antibody, human IgG1, V domains shown)
VH: QVQLKESGPGLVAPSQSLSITCTVSGFSLSSYGVSWVRQPPGKGLEWLGVIWGDGSTNYHPNLMSRLSISKDISKSQVLFKLNSLQTDDTATYYCVTLDYWGQGTSVTVSS
VL: DVVMTQTPLSLPVSLGDQASISCRSSQSLVHRNGNTYLHWYLQKPGQSPKLLIYKVSNRFSGVPRDFSGSGSGTDFTLKISRVEAEDLGLYFCFQTTYVPNTFGGGTKLEIK
modifications: 124I radiolabel by the standard iodogen reaction (residues and chain not stated)
In the case of B1, the T:B ratio (amyloid deposit-to-background, SUVmax) in experiment [1] was 2.8; in experiment [2] it was 4.1; in experiment [4], 2.1 to 4.2. In addition, in experiment [3], the T:B uptake (amyloid deposit-to-background) is more than 2.1.
